Experimental data as given in patent publication US11918645B2, “Vaccines against hepatitis B virus” (priority 2012, dated 2024).

Legend:
[1] = system: HLA class I alleles; experiment: ProImmune REVEAL MHC class I binding assay, summary over the seven alleles; set-up: species or system human; settings: for Number of allele (b): number of class I alleles for which positive binding was detected; for Number of HLA binders (a): total number binding epitopes detected for each long peptide, seven class I alleles
Text: (§1) The number of HLA class I binding registers contained in each peptide may be determined by determining the ability of the peptide to bind to a range of frequently occurring HLA class I molecules. HLA class I binding may be measured using the ProImmune REVEAL® MHC-peptide Binding Assay (ProImmune Ltd, Oxford, UK). The REVEAL™ MHC peptide-binding assay measures the ability of each peptide to stabilize the ternary MHC-peptide complex for […], HLA-A*0201, HLA¬A*0301, HLA-A*2402, HLA-B*0702, HLA-B*0801, HLA-B*3501 representative of main HLA class I supertypes. Each tested peptide is given a score relative to a pass/fail control peptide and also compared to a positive control peptide.
(§2) Detection is based on the presence or absence of the native conformation of the MHC-peptide complex. The highly frequent HLA class I alleles (HLA-A*0201, A*0301, A*1101, A*2402, B*0702, B*0801, and B*3501) were selected. Binding to MHC molecules was compared to that of a known T-cell epitope, a positive control peptide, with very strong binding properties. […] The score of the test peptide is reported quantitatively as a percentage of the signal generated by the positive control peptide, and the peptide is indicated as having a putative pass or fail result. Good binders are considered to be those peptides with scores 45% of the positive control as defined by ProImmune.

[2] = system: HLA-DR1 (α1*01:01;β1*01:01); experiment: ProImmune REVEAL MHC class II binding assay of long peptides; set-up: species or system human; settings: percentage of the signal of the positive control peptide; positive binding score >=15%
Text: (§3) The highly frequent HLA class II alleles HLA-DR1 (α1*01:01;β1*01:01), HLA-DR15 (α1*01:01;β1*15:01), HLA-DR3 (α1*01:01;β1*03:01), HLA-DR4 (α1*01:01;β1*04:01), HLA-DR11 (α1*01:01;β1*11:01), HLA-DR13 (α1*01:01;β1*13:01), and HLA-DR7 (α1*01:01;β1*07:01) were selected. Each peptide was given a score relative to the positive control peptide, which is a known T-cell epitope. The score of the test peptide is reported quantitatively as a percentage of the signal generated by the positive control peptide, and the peptide is indicated as having a putative pass or fail result. Good binders are considered to be those peptides with scores >=15% of the positive control as defined by Proimmune.

[3] = system: HLA-DR3 (α1*01:01;β1*03:0); experiment: as above; set-up: species or system human; settings: percentage of the signal of the positive control peptide; positive binding score >=15%
Text: as §3

[4] = system: HLA class II alleles; experiment: ProImmune REVEAL MHC class II binding assay, summary over the seven alleles; set-up: species or system human; settings: number of class II alleles for which positive binding (score >=15%) was detected
Text: as §3

[5] = molecular target: T1, HLA-DR15 (α1*01:01;β1*15:01) (Homo sapiens, UniProt P01903+P01911); experiment: ProImmune REVEAL MHC class II binding assay of long peptides; settings: percentage of the signal of the positive control peptide; positive binding score >=15%
T1 construct: purchased ProImmune
Text: as §3

[6] = molecular target: T2, HLA-DR7 (α1*01:01;β1*07:01) (Homo sapiens, UniProt P01903+P01911, A100R/A102G/A103Q/D57E/D86V/E43K/F76Y/K127E/L162R/M171V/P40G/Q125H/Q99D/R195Q/R33Q/R42Y/R54Q/S133A/S149N/S66F/T210M/V115G/Y107V/Y59L/Y89S); experiment: as above; settings: percentage of the signal of the positive control peptide; positive binding score >=15%
T2 construct: purchased ProImmune
Text: as §3

[7] = molecular target: HLA-B*0801 (Homo sapiens, UniProt P01889, A93T/A95T/D138N/E176V/E187T/K202T/Q94N/R180D/S35A/V36M/Y33D/Y91F); experiment: ProImmune REVEAL MHC class I binding assay of nonamers; settings: score as % of positive control peptide
Text: as §1, §2

[8] = molecular target: T3, HLA-B*0702 (Homo sapiens, UniProt P01889); experiment: as above; settings: score as % of positive control peptide
T3 construct: purchased ProImmune
Text: as §1, §2

[9] = molecular target: HLA-A*2402 (Homo sapiens, UniProt P04439, D101N/D140Y/D185E/E176V/E190D/F33S/G103R/G107R/I119L/I121M/I306V/K335N/L105A/L180Q/L300P/N151K/N90K/Q86E/Q94H/R106L/R138H/R89G/T104I/T345S/V100E/W191G/Y123F); experiment: as above; settings: score as % of positive control peptide
Text: as §1, §2

[10] = molecular target: T4, HLA-A*0301 (Homo sapiens, UniProt P04439); experiment: as above; settings: score as % of positive control peptide
T4 construct: purchased ProImmune
Text: as §1, §2

[11] = molecular target: HLA-B*3501 (Homo sapiens, UniProt P01889, A329T/A93T/A95T/C349S/D201E/D98Y/E176V/E187L/E204Q/E69T/I218V/K202T/L119I/Q94N/R155S/R180L/S121R/S35A/S48A/T118I/V127L/V306I/V36M/Y140S/Y91F); experiment: as above; settings: score as % of positive control peptide
Text: as §1, §2

[12] = molecular target: HLA-A*0201 (Homo sapiens, UniProt P04439, D140Y/D185E/D98H/E176V/E277Q/G131W/G231S/I119V/I121R/I166T/I218V/L300P/L318F/N151K/N90K/P208A/P217A/Q86G/Q94H/R138H/R169H/T345S); experiment: as above; settings: score as % of positive control peptide
Text: as §1, §2

[13] = molecular target: T5, HLA-A*1101 (Homo sapiens, UniProt P04439, A114D/D185E/E176A/F33Y/L180Q/S129P/T187R); experiment: as above; settings: score as % of positive control peptide
T5 construct: purchased ProImmune
Text: as §1, §2

[14] = molecular target: T6, HLA-DR13 (α1*01:01;β1*13:01) (Homo sapiens, UniProt P01903+P01911, A100E/A169T/K41T/L162R/M171V/P40S/Q125H/Q178H/Q39Y/Q99D/R42S/S66N/W38E/Y61H); experiment: ProImmune REVEAL MHC class II binding assay of long peptides; settings: percentage of the signal of the positive control peptide; positive binding score >=15%
T6 construct: purchased ProImmune
Text: The highly frequent HLA class II alleles HLA-DR1 (α1*01:01;β1*01:01), HLA-DR15 (α1*01:01;β1*15:01), HLA-DR3 (α1*01:01;β1*03:01), HLA-DR4 (α1*01:01;β1*04:01), HLA-DR11 (α1*01:01;β1*11:01), HLA-DR13 (α1*01:01;β1*13:01), and HLA-DR7 (α1*01:01;β1*07:01) were selected. Each peptide was given a score relative to the positive control peptide, which is a known T-cell epitope.

[15] = system: BALB/c mice; experiment: Immunogenicity in mice, IFNγ ELISpot of splenocytes, FP02.1 vs NP02.1 (Example 6); type: in vivo; settings: mice immunised with FP02.1 or NP02.1, restimulation 5 μg/mL/peptide, FIG. 15
Protocol: The immunogenicity in mice of FP02.1 (containing nine fluorocarbon-conjugated peptides) was compared to NP02.1 (containing nine equivalent unconjugated peptides).
Alternatively, splenocytes were stimulated in vitro with 5 μg/mL/peptide of nine individual peptides for 18 hours in an ELISpot assay. The number of IFNγ+ spot forming cells (SFC) was counted. Plates then were washed with PBS, incubated with an IFNγ detection peroxidase-labelled antibody, followed by a substrate, according to the manufacturer's instructions.

[16] = system: PBMC from chronic HBV-infected subjects; experiment: IFNγ ELISpot of PBMC restimulated with individual unconjugated HBV long peptides (Example 5); type: cell-based, human; settings: for T cell responses (IFNγ ELISpot), level and frequency of responders: HBeAg-negative inactive carriers and HBeAg-negative treated subjects, 5 μg/mL, 18 h, FIGS. 9 and 10; for T cell responses (IFNγ ELISpot) grouped by infecting HBV genotype: genotypes A, B, C & D, FIG. 11; for T cell responses (IFNγ ELISpot) grouped by ethnic background: three ethnic groups, FIG. 12
Protocol: One vial of PBMC from each subject (containing 1×10^7 cells) was thawed and lymphocyte numbers were determined using a Scepter™ automated handheld cell counter. PBMC were cultured in 2 mL culture medium (CM: RPMI-1640 Glutamax supplemented with 5% human AB serum) in 24 well cell culture plates at a concentration of 1×10^6 cells/mL for a total of 11 days. Cells were stimulated with a mixture of the nine HBV-derived long peptides described in Example 3.
Each peptide was used at a final concentration of 1 μg/peptide/mL. On Day 4, IL-2 and IL-15 were added to the cultures to final concentrations of 10 IU/mL and 10 ng/mL respectively. On Day 10, cells were washed twice in CM and cultured with 10 IU/mL IL-2 for 1 additional day. On Day 11, cells were washed twice in CM, counted and incorporated in a human IFNγ (interferon-gamma) ELISpot assay or intracellular cytokine staining.
Cells from short term cultures were plated in triplicate wells at 5×10^4 PBMC/well. Final antigen concentrations used were: 5 μg/mL for each individual peptides; PHA positive control: 1 μg/mL.

T6 sequence (P01903 26-216, other chains not shown): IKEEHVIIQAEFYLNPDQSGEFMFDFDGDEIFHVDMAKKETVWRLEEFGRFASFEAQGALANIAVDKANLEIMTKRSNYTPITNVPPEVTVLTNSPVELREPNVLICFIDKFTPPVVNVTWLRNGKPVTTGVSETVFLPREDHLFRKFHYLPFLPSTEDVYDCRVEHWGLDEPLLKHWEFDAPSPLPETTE

| Substance | Number of allele (b) [1] | Number of HLA binders (a) [1] | binding score, HLA-DR1 (α1*01:01;β1*01:01) [2] | binding score, HLA-DR3 (α1*01:01;β1*03:0) [3] | Number of allele (a) [4] | binding score, HLA-DR15 (α1*01:01;β1*15:01) [5] | binding score, HLA-DR7 (α1*01:01;β1*07:01) [6] | Number of nonamers having a binding score >= 45%, HLA-B*0801 [7] | Number of nonamers having a binding score >= 45%, HLA-B*0702 [8] | Number of nonamers having a binding score >= 45%, HLA-A*2402 [9] | Number of nonamers having a binding score >= 45%, HLA-A*0301 [10] | Number of nonamers having a binding score >= 45%, HLA-B*3501 [11] | Number of nonamers having a binding score >= 45%, HLA-A*0201 [12] | Number of nonamers having a binding score >= 45%, HLA-A*1101 [13] | binding score, HLA-DR13 (α1*01:01;β1*13:01) [14] | IFNγ response of splenocytes to each individual peptide component [15] | IFNγ response of splenocytes to each individual peptide component ([15]; listed as P376) | T cell responses (IFNγ ELISpot), level and frequency of responders [16] | T cell responses (IFNγ ELISpot) grouped by infecting HBV genotype [16] | T cell responses (IFNγ ELISpot) grouped by ethnic background [16] |
| --- | --- | --- | --- | --- | --- | --- | --- | --- | --- | --- | --- | --- | --- | --- | --- | --- | --- | --- | --- | --- |
| NP277(K): unconjugated HBV long peptide, polymerase 260-293 + KKK (RVSWPKFAVPNLQSLTNLLSSNLSWLSLDVSAAFYHKKK; HBV CONSENSUS SEQUENCE) | 5 | 18 | 0.49% | 0.10% | 1 | 0.18% | 0.01% | 1 | 3 | 5 | 0 | 3 | 6 | 0 | 0.00% |  |  |  |  |  |
| NP376: unconjugated HBV long peptide, polymerase 359-398 (C to S substitution at 393) (KLHLYSHPIILGFRKIPMGVGLSPFLLAQFTSAISSVVRR; HBV CONSENSUS SEQUENCE) | 6 | 35 | 27.71% | 0.00% |  | 6.29% |  | 6 | 4 | 10 | 0 | 6 | 8 | 1 | 0.00% | immune responses were dominated by four out of the 9 peptides contained in the vaccine | only observed with the formulation containing the fluorocarbon-conjugated peptides | highest level of responses in both patient populations and in the highest proportion of subjects | highest responses across all four genotypes A, B, C & D | highest responses across all three ethnic groups |
| NP797(K): unconjugated HBV long peptide, core 780-814 (C to S at 792) + KKK | 7 | 22 | 0.20% | 0.00% | 0 | 1.14% | 0.01% | 3 | 4 | 5 | 1 | 2 | 6 | 1 | 0.00% |  |  | highest level of responses in both patient populations and in the highest proportion of subjects | highest responses across all four genotypes A, B, C & D | highest responses across all three ethnic groups |
